Experimental findings from patent US20240287501A1 (VIB VZW, published 2024) are described below.

For assay [1], the target named is T1, PDC1 (native, from EBY100 lysate) (Saccharomyces cerevisiae, UniProt P06169 2-563).
T1 construct: mature; Endogenous untagged protein; also called YLR044C
T1 sequence (looked up): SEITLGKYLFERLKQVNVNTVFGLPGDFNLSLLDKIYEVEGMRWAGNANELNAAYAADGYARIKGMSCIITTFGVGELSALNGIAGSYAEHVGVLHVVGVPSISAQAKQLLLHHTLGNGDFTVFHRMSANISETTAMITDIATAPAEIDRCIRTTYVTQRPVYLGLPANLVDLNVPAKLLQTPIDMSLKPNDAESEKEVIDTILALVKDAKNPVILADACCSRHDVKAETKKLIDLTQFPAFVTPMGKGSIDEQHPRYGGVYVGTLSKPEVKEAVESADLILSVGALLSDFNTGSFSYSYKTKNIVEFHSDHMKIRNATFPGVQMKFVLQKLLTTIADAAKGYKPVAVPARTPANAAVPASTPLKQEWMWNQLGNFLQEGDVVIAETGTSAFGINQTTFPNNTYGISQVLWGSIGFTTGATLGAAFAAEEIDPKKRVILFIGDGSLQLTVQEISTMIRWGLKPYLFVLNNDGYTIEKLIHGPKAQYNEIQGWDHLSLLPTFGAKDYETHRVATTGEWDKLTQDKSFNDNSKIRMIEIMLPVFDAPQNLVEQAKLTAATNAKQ
The assay can be described thus: co-immunoprecipitation, Nb coupled to NHS-agarose beads, EBY100 yeast lysate (native target), SDS-PAGE. How it is done: (§1) Two PDC1-specific Nanobodies (51=Nb clone CA17451 corresponding to SEQ ID NO: 7, 52=CA17452-SEQ ID NO: 8) were characterized by co-immunoprecipitation assays. Each PDC1-specific Nanobodies was covalently linked to NHS-agarose beads. The beads that were functionalized with these PDC1-specific Nanobodies were incubated for an hour at 4° C. on a rotating device with either an EBY100 lysate or the lysate of the engineered Yeast strain expressing PDC1 (Yeast GFP fusion collection reference: GFP(+)12, F8) as a GFP-tagged protein. After washing, these beads were resuspended in SDS-PAGE loading dye and analyzed on SDS-PAGE (FIG. 5A). Separated proteins were transferred to a PVDF membrane and the Western blot (FIG. 5B) was developed with GFP-specific antibody to confirm the presence of GFP-tagged PDC1.

Assay [2] deals with T2, GFP-tagged PDC1 (Saccharomyces cerevisiae, UniProt P06169 2-563).
T2 construct: Yeast GFP Fusion Collection strain; also called Yeast GFP fusion collection GFP(+)12, F8; not shown: GFP tag
T2 sequence (looked up): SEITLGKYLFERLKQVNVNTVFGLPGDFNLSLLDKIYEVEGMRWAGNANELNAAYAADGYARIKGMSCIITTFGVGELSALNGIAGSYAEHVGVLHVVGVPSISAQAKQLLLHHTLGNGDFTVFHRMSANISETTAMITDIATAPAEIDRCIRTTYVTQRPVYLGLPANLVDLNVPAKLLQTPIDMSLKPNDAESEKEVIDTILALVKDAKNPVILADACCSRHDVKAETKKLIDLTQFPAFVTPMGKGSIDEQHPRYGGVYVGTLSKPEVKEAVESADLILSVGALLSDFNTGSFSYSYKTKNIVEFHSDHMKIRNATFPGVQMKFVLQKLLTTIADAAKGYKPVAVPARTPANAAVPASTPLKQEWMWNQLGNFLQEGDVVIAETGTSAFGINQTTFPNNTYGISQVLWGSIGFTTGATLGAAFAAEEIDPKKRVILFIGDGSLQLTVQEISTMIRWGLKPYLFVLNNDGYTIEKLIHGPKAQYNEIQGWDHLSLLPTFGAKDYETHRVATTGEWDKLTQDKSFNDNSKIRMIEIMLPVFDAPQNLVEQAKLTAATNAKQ
The assay is described as follows: co-immunoprecipitation, Nb coupled to NHS-agarose beads, lysate of the yeast strain expressing the GFP-tagged target, SDS-PAGE. The protocol: as §1

Assay [3] deals with T3, PGI1 (native, un-tagged, from EBY100 lysate) (Saccharomyces cerevisiae, UniProt P12709 2-554).
T3 construct: mature; Endogenous untagged protein, 61 kDa band; also called YBR196C; endogenous PGI1
T3 sequence (P12709 2-554): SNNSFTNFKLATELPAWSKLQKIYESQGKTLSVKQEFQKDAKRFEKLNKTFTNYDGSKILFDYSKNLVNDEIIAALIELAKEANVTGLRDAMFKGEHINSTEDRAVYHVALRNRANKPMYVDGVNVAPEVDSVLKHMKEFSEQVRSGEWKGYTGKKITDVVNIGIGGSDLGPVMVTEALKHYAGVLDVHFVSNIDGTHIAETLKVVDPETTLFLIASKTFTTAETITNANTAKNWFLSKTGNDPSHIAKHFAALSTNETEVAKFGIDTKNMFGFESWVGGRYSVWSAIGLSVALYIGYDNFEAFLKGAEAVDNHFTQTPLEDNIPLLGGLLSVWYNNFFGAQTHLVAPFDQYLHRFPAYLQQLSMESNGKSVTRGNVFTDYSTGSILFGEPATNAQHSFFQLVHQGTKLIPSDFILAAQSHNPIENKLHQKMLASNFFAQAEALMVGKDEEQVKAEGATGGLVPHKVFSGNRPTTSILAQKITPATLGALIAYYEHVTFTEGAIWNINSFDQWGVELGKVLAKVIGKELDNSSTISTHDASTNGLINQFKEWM
The assay can be described thus: co-immunoprecipitation, Nb coupled to NHS-agarose beads, EBY100 yeast lysate (native target), SDS-PAGE. The protocol: (§2) Three PGI1-specific Nanobodies (55=Nb clone CA17455 corresponding to SEQ ID NO: 15, 56=CA17456-SEQ ID NO: 16, 57=CA17457-SEQ ID NO: 17) were characterized by co-immunoprecipitation assays. Each PGI1-specific Nanobodies was covalently linked to NHS-agarose beads. The beads that were functionalized with these PGI1-specific Nanobodies were incubated for an hour at 4° C. on a rotating device with either an EBY100 lysate or the lysate of the engineered Yeast strain expressing PGI1 (Yeast GFP fusion collection reference: GFP(+)12, H11) as a GFP-tagged protein. After washing, these beads were resuspended in SDS-PAGE loading dye and analyzed on SDS-PAGE (FIG. 7A). Separated proteins were transferred to a PVDF membrane and the Western blot (FIG. 7B) was developed with GFP-specific antibody to confirm the presence of GFP-tagged PGI1.

Assay [4] has as its target T4, GFP-tagged PGI1 (Saccharomyces cerevisiae, UniProt P12709 2-554).
T4 construct: Yeast GFP Fusion Collection strain; 88 kDa band; also called GFP-PGI1; Yeast GFP fusion collection GFP(+)12, H11; not shown: GFP tag
The assay can be described thus: co-immunoprecipitation, Nb coupled to NHS-agarose beads, lysate of the yeast strain expressing the GFP-tagged target, SDS-PAGE. The protocol:
as §2

Assay [5] deals with T5, SSA1 (native, from EBY100 lysate) (Saccharomyces cerevisiae, UniProt P10591 2-642).
T5 construct: mature; Endogenous untagged protein; also called YAL005C
T5 sequence (P10591 2-642): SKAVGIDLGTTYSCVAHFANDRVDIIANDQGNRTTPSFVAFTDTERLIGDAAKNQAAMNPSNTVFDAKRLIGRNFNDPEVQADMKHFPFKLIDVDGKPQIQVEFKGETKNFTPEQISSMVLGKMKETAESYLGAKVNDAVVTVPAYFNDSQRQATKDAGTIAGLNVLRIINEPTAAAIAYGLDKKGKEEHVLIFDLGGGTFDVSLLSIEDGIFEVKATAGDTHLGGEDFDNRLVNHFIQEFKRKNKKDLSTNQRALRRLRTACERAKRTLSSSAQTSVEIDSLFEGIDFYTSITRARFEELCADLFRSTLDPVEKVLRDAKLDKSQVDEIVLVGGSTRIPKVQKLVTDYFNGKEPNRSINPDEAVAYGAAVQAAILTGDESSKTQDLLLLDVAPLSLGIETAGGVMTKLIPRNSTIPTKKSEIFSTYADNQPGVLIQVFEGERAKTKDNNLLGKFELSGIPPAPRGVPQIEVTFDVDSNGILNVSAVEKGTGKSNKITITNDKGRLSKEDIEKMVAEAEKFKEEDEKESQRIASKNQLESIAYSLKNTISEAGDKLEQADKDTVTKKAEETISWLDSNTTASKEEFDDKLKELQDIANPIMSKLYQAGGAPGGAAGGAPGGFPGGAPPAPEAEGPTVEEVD
The assay can be described thus: co-IP, Nb on NHS-agarose beads, EBY100 yeast lysate, SDS-PAGE.

The target of assay [6] is T6, GFP-tagged SSA1 (Saccharomyces cerevisiae, UniProt P10591 2-642).
T6 construct: Yeast GFP Fusion Collection strain; also called Yeast GFP fusion collection GFP(+)10, E4; not shown: GFP tag
T6 sequence (P10591 2-642): as above
The assay can be described thus: co-immunoprecipitation, Nb coupled to NHS-agarose beads, lysate of the yeast strain expressing the GFP-tagged target, Western blot anti-GFP. The protocol:
Six SSA1-specific Nanobodies (60=Nb clone CA17560 corresponding to SEQ ID NO: 19, 61=CA17561-SEQ ID NO: 20, 62=CA17562-SEQ ID NO: 21, 63=CA17563-SEQ ID NO: 22, 64=CA17564-SEQ ID NO: 23, 65=CA17565-SEQ ID NO: 24) were characterized by co-immunoprecipitation assays. Each SSA1-specific Nanobodies was covalently linked to NHS-agarose beads. The beads that were functionalized with these SSA1-specific Nanobodies were incubated for an hour at 4° C. on a rotating device with either an EBY100 lysate or the lysate of the engineered Yeast strain expressing SSA1 (Yeast GFP fusion collection reference: GFP(+)10, E4) as a GFP-tagged protein. After washing, these beads were resuspended in SDS-PAGE loading dye and analyzed on SDS-PAGE (FIG. 6A). Separated proteins were transferred to a PVDF membrane and the Western blot (FIG. 6B) was developed with GFP-specific antibody to confirm the presence of GFP-tagged SSA1.
In general terms: Immunoblotting shows a protein as a band on a membrane.

Assay [7] has as its target T7, ALD6 (native, from EBY100 lysate) (Saccharomyces cerevisiae, UniProt P54115 2-500).
T7 construct: mature; Endogenous untagged protein; also called YPL061W
T7 sequence (looked up): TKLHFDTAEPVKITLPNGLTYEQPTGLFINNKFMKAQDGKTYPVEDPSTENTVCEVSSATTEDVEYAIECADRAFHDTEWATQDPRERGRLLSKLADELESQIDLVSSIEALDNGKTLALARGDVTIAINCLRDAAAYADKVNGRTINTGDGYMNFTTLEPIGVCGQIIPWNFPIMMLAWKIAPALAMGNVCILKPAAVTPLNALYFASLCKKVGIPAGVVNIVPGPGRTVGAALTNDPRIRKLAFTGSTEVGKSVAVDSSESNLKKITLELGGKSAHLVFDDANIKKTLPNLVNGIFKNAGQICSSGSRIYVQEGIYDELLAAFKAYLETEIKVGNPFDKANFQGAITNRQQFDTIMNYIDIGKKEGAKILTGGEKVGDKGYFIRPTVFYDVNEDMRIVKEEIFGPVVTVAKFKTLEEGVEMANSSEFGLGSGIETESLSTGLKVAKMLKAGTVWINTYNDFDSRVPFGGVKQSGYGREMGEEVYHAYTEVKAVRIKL
The assay is described as follows: co-IP, Nb on NHS-agarose beads, EBY100 yeast lysate, SDS-PAGE.

The target in assay [8] is T8, GFP-tagged ALD6 (Saccharomyces cerevisiae, UniProt P54115 2-500).
T8 construct: Yeast GFP Fusion Collection strain; also called Yeast GFP fusion collection GFP(+)15, F1; not shown: GFP tag
T8 sequence (looked up): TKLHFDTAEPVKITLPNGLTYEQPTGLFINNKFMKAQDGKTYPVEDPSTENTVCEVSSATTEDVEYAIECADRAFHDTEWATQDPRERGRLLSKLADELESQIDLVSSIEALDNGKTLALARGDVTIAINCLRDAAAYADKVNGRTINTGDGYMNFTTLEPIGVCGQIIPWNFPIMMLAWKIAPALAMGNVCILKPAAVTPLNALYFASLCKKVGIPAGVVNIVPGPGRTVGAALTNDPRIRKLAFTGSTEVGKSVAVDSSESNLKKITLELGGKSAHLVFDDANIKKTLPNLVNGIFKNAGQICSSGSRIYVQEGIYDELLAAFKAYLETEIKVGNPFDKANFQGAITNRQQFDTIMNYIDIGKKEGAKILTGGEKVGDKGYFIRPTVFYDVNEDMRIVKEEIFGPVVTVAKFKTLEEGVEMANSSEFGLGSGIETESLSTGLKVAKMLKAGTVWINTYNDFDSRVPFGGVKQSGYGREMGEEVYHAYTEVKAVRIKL
The assay is described as follows: co-immunoprecipitation, Nb coupled to NHS-agarose beads, lysate of the yeast strain expressing the GFP-tagged target, Western blot anti-GFP. How it is done:
One SIS1-specific Nanobody (44=Nb clone CA17444 corresponding to SEQ ID NO: 9), three ALD6-specific Nanobodies (53=CA17453-SEQ ID NO: 10, 54=CA17454-SEQ ID NO: 11, 60=CA17460-SEQ ID NO: 12), two BMH1-specific Nanobodies (58=CA17458-SEQ ID NO: 13, 59=CA17459-SEQ ID NO: 14) were characterized by co-immunoprecipitation assays. Each target-specific Nanobodies was covalently linked to NHS-agarose beads. The beads that were functionalized with these target-specific Nanobodies were incubated for an hour at 4° C. on a rotating device with either an EBY100 lysate or the lysate of the engineered Yeast strain expressing the target (Yeast GFP fusion collection reference for SIS1: GFP(+)22, E5, for ALD6: GFP(+)15, F1, for BMH1: GFP(+)27, D5) as a GFP-tagged protein. After washing, these beads were resuspended in SDS-PAGE loading dye and analyzed on SDS-PAGE (FIG. 8A). Separated proteins were transferred to a PVDF membrane and the Western blot (FIG. 8B) was developed with GFP-specific antibody to confirm the presence of GFP-tagged targets.

T4 sequence (P12709 2-554): as the sequence (P12709 2-554) above

B1: CA17451 (VHH)
VHH: QVQLVESGGGLVQPGGSLRLSCAASGISFSINTLGWYRQAPGKQRELVATVTTGGSTYYVDSAKGRFTVSRDNAKNTVYLQMNSLNSEDTAVYYCKLERYGVWGQGTQVTVSS
notes: C-terminal 6xHis-EPEA tag is part of the entry
As to B1, the binding result in assay [1] and in assay [2] was “binds” in each case.

B2: CA17452 (VHH)
VHH: QVQLVESGGGLVQAGASLTLSCAASGRTFNTYSMHWFRQAPGKEREFVAATNWGGNSKFYADSVRGRFTISRDNTKNMVYLQMNSLKPEDTAVYYCAAHRTVVGKTPDYWGQGTQVTVSS
notes: as for B1
Regarding B2, the binding result in assay [1] and in assay [2] was “binds” in each case.

B3: CA17456 (VHH)
VHH: QVQLVESGGGLVQPGGSLRLSCAASRSIVTINVMGWYRQAPGKEREFVAGATSGGSTDYADSVKGRFTISRDNAKNTVYLQMNSLKPEDTAVYYCNLRGTGYNYGENYWGKGTQVTVSS
notes: as for B1
Consider B3, for which the binding result in assay [3] and in assay [4] was “binds” in each case.

B4: CA17563 (VHH)
VHH: QVQLVESGGGTVQAGDSLRLSCSASGRALTPYTMAWFRQPPGKERELVAAIGRTGSGTRYAEAVKDRFTISRDNDKQELYLQMNSLKPEDTAVYYCAANRRLTTSLEYDYWGQGTQVTVSS
notes: as for B1
As for B4, the binding result in assay [5] and in assay [6] was “binds” throughout.

B5: CA17454 (VHH)
VHH: QVQLVESGGGLVQPGGSLRLSCAASGSIFSRNYIAWYRQAPGKQRELVARKTQSGATVYADSVKGRFTISTNNAKNTMYLQMNILKPEDTAVYYCNAGGLIGSWGQGTQVTVSS
notes: as for B1
For B5, the binding result in assay [7] and in assay [8] was “binds” throughout.

B6: CA17453 (VHH)
VHH: QVQLVESGGGVVQPGGSLRLSCAASGRIFIRSAWYRQAPGKQRALVASIFSGGTTNYADSVKGRFTISRDNAKNTVILEMNNLKPEDTAVYYCNVRVRSGTDYWGQGTQVTVSS
notes: as for B1
As for B6, the binding result in assay [7] and in assay [8] was “binds” each time.
